Source: publication PMC3258524, “Regulation of the human tyrosinase gene in retinal pigment epithelium cells: the significance of transcription factor orthodenticle homeobox 2 and its polymorphic binding site” (Molecular Vision, 2012)

Columns and labels:
[1] = biological target: T1, full-length MITF-M (microphthalmia-associated transcription factor, isoform M) (UniProt O75030-9 1-419); assay: cell-based or functional assay
T1 sequence (looked up): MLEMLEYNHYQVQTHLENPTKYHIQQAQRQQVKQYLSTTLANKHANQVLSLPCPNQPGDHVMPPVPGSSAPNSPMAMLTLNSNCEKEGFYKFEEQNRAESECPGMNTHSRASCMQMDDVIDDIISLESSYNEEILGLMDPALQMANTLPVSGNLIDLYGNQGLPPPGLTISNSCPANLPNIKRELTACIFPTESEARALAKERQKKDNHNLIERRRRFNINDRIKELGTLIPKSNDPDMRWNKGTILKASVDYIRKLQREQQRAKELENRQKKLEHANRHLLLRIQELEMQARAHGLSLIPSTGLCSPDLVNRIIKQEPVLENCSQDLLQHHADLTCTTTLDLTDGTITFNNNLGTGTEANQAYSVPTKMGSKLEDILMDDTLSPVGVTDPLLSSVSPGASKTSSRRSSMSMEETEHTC

[2] = biological target: T2, full-length MITF-A (microphthalmia-associated transcription factor, isoform A) (UniProt O75030-2 1-520); assay: cell-based or functional assay
T2 sequence (looked up): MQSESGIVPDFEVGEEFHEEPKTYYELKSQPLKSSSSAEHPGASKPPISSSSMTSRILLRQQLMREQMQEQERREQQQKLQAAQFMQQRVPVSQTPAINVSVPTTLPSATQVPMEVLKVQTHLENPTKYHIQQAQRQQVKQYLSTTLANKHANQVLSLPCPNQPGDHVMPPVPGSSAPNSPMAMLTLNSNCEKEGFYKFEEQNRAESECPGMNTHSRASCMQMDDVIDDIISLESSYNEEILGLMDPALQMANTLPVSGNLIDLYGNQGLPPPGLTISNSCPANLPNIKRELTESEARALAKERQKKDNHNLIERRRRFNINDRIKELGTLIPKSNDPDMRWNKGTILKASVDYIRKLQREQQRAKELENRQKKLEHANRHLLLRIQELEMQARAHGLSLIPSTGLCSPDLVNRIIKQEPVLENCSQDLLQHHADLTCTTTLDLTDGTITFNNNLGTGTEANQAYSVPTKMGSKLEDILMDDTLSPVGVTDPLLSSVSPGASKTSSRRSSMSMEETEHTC

B1: full-length OTX2 (orthodenticle homeobox 2) (natural protein)
chain: not shown
B1 was tested, and the “luciferase reporter driven by the human TYR promoter construct -152 (MITF sites, no OTX2 sites) in ARPE-19 cells cotransfected with MITF-M and OTX2; synergism compared with that of MITF-A and OTX2” value [1] was ~1.7 fold (against MITF-A) and the “luciferase reporter driven by the human TYR promoter construct -152 (MITF sites, no OTX2 sites) in ARPE-19 cells cotransfected with MITF-A and OTX2; activation relative to the empty vector” value [2] was 20 fold.
